The target in assay [1] is T1, BMP2 (Homo sapiens, UniProt P12643).
T1 sequence (P12643 283-396): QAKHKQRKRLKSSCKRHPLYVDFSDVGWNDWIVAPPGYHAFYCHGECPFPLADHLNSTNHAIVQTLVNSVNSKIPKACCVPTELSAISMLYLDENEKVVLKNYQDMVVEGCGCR
The assay is described as follows: Surface plasmon resonance (SPR), BMPs injected over VHH-coated chip. To be noted: molecule coupled to chip, —: No binding detected. How it is done: In a first set of experiments, controls and VHHs (either as monomers or dimers) were coupled to SPR chips and the measurement of BMP affinities was obtained by injecting the different BMPs to the plate.
(§1) Serial dilutions (2.0-10 μg/ml) of purified VHHs were spotted on an amine-specific SensEye gold-film gel-type SPRchip (Ssens), using a Continuous Flow Microspotter (Wasatch Microfluidics, Salt Lake City, Utah, United States) as described (Lokate et al., 2007). BMP binding was analyzed on an IBIS MX96 (IBIS Technologies, Enschede, The Netherlands) instrument by performing injections with dilution series (0.05-2.0 μg/ml) of recombinant BMPs on the VHH-coated chip. In each injection, BMPs were injected and incubated for 8 min, followed by 15 min thorough washing with binding buffer (PBS+0.05% Tween20+0.05% sodium azide) to measure dissociation. Epitope binning was done by injecting VHH dilutions (2.0 μg/ml) over the chip, immediately after the dissociation step. Injections with blank binding buffer were used as reference. After each concatenated injection, the chip was regenerated with 10 mM glycine-HCl, pH 2.0. Experimental data were processed with SPRintX software (IBIS Technologies) and kinetic parameters were determined using Scrubber2 software (BioLogic Software, Campbell, ACT, Australia). Binding constants were obtained by global fitting to a one-site binding model.

The target in a further assay is T2, BMP6 (Homo sapiens, UniProt P22004).
T2 sequence (P22004 375-513): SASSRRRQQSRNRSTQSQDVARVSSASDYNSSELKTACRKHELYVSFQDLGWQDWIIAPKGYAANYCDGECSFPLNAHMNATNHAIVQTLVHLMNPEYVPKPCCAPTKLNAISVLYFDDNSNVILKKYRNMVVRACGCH
The assay is described as above. To be noted: molecule coupled to chip; unit inferred; — not defined there (Table 1: No binding detected). How it is done:
(§2) To confirm their BMP specificities and to elucidate their binding affinities, our VHHs were subjected to surface plasmon resonance (SPR) analysis. In a first set of experiments, controls and VHHs (either as monomers or dimers) were coupled to SPR chips and the measurement of BMP affinities was obtained by injecting the different BMPs to the plate.
as §1

Another assay has as its target T3, BMP5 (Homo sapiens, UniProt P22003).
T3 sequence (P22003 317-454): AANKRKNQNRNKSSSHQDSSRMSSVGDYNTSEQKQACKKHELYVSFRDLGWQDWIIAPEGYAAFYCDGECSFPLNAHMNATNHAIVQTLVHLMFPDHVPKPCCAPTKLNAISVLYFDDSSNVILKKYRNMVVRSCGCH
Described as above. It counts as binding. To be noted: molecule coupled to chip; unit inferred. How it is done:
as §2, §1

In another assay the target is T4, BMP7 (Homo sapiens, UniProt P18075).
T4 sequence (P18075 293-431): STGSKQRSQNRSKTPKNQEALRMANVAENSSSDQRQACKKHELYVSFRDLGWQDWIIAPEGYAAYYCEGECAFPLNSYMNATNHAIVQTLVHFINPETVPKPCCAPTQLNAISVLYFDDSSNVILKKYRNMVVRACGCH
Described as above. Type of assay: binding. As to conditions: molecule coupled to chip; unit inferred; — not defined there (Table 1: No binding detected). The method, then: as §2, §1

The target in assay [2] is T5, BMP4 (Homo sapiens, UniProt P12644).
T5 sequence (P12644 293-408): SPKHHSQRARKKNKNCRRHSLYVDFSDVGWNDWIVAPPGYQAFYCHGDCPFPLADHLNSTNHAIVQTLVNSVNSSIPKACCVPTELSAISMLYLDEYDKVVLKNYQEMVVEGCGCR
The description is as above. Set-up: purchased R&D systems. It counts as binding. To be noted: molecule coupled to chip. The method, then: as §2, §1

In assay [3] the target is T6, BMP2 (human).
T6 chain: T1 sequence (P12643 283-396)
The assay is described as follows: SPR. A general note: Surface plasmon resonance follows binding to a sensor surface in real time, without labels.

For assay [4], the target named is T7, BMP4 (human).
T7 chain: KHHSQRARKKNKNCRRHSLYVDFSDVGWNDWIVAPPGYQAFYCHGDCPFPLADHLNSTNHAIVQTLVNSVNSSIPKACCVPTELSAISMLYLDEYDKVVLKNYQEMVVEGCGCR
As to the kind of experiment: SPR.

For assay [5], the target named is T1, BMP2. As to the kind of experiment: BMP activity luciferase reporter assay (BRE-luciferase, ID1 promoter) in C2C12 cells. Type of assay: cell-based, mouse. As to conditions: BMP2 50 ng/ml, 16 hours; 5 μg/ml. How it is done:
One of the most studied BMP target genes is the Inhibitor of Differentiation 1 (ID1). This is an immediate early gene that is activated by binding of the phosphorylated SMADs to its promoter region (López-Rovira et al., 2002). Thus, we employed the BMP-responsive C2C12 cells, which are stably transfected with the BRE-luciferase vector containing the BMP-Responsive-Element (the mouse ID1 promoter) cloned into the pGL3 luciferase vector (Zilberberg 2007). […] C2C12 cells were treated with the different BMPs with or without our VHHs or human Noggin at a concentration of 5 μg/ml. Luciferase activity was measured after 16 hours incubation. Most of the transcriptional data is in concordance with the results obtained with the phosphorylation of SMAD1/5/8.
C2C12 cells were plated in 96-well plates at 5×10^3 cells/well and cells were allowed to attach overnight. 100 μl of DMEM with 0.1% BSA were added in each well. VHH antibodies and human Fc-Noggin at the indicated concentrations were added at the same time. Wells with unstimulated cells were added as controls. Cells were treated in triplicate with the BMPs at the indicated concentrations for 16 hours. Luciferase activity was measured by adding 100 μl of luciferase substrate solution from the Bright-Glo™ Luciferase Assay System (Promega Benelux, Leiden, The Netherlands). After 3 minutes of incubation, luciferase activity was measured with Synergy HT Multi-Mode Microplate Reader (Biotek, Winooski, Vt., United States). Luciferase values were normalized to background activity (activity of wells with no cells) and represented as ratio to the activity of BMP-stimulated cells.
To evaluate the extent of this increase in potency, the IC50 of the different VHHs were determined in a dose-dependent inhibition assay in C2C12 cells (FIG. 25). C2C12 cells were plated in 96-well plates at 5×10^3 cells/well and cells were allowed to attach overnight 100 μl of DMEM with 0.1% BSA were added in each well. VHH antibodies were added at the indicated concentrations at the same time as 5 ng/ml BMP4 (FIG. 25A-B, D) or 50 ng/ml of BMP2 (FIG. 25C,D). Luciferase activity was measured after 16 hours. Values are represented as ratio to the activity of BMP-stimulated cells. […] However, its effects were more striking for BMP2 rather than BMP4 inhibition. […] The IC50 values for BMP4 inhibition observed in our VHHs are considerably lower than those observed for anti-BMP4 commercially available from R&D (Katagiri et al 1994) and those described in WO_2008/030611.
C2C12 cells were cultured in 96-well plates at 5×10^3 cells/well. After overnight attachment cells were stimulated with 10 ng/ml hBMP4 (Cat No. 314-BP-020; R&D Systems), 50 ng/ml hBMP2 (Cat No. 355-BM-010; R&D Systems), 200 ng/ml hBMP5 (Cat No. 615-BMC-020; R&D Systems), 50 ng/ml hBMP6 (Cat No. 506-BP-020; R&D Systems), 200 ng/ml hBMP7 (Cat No. 354-BP-010; R&D Systems), 25 ng/ml hBMP9 (Cat No. 3209-BP-010; R&D Systems), 25 ng/ml hBMP10 (Cat No. 2926-BP-025; R&D Systems), 50 ng/ml hBMP12 (Cat No. 779-G7-010; R&D Systems) and with or without VHH antibodies: C4C4 and C8C8 at 500 ng/ml; natural antagonist: mNoggin (Cat No. 1967-NG-025; R&D Systems), hNoggin (Cat No. 6057-NG; R&D Systems) and mGremlin (cat#956-GR-050; R&D Systems) at 500 ng/ml; chemical antagonist: 0.5 μM LDN-193189 (Cat No. 11802; Cayman Chemical) and 0.2 μM DMH1 (Cat No. 57146; Selleckchem).
VHH efficacy was evaluated by stimulating cells with 10 ng/ml of hBMP4 and 50 ng/ml of hBMP2, with and without increase concentrations (from 0.1-10 μg/ml) of VHH and anti-BMP4 antibodies: clone 66119, clone 3H2, clone M912262, clone PA354-16.1.1, Clone EPR6211, and anti-BMP4 (ab39973). […] Unstimulated cells were used as controls and wells with no cells used to normalize the background activity. […]
(In general: Reporter assays use an easily measured gene product as a stand-in for the process of interest.)

Substitutions are numbered along the chain they refer to. Numbers in names are those of the source.

As usually defined, the Kd is the equilibrium constant for the complex coming apart. In the case of “BMPR1a: type I BMP receptor used as control in SPR [reference compound]”, the “kd (BMP2)” value in the assay with BMP2 [1] was 14.0 10^−5 sec^−1. Besides, the Kd with BMP6 came out at 24 nM; with BMP5 it was 60 nM; with BMP7, 131 nM. In addition, in the assay with BMP4 [2], the “kd (BMP4)” value is reported as 9.2 10^−5 sec^−1.

B1: C8-C8 (antibody, V domains shown)
V domain 1: EVQLVESGGGLVQAGGSLRLSCAASGRTFRINDMGWYRQAPGKSRDMVARITSGGNTNYADSVKGRFTISRDNAKNTVYLQMNSLKPEDTAVYYCNADGLRFDSTRYRPFDSWGQGTQVTVSS
V domain 2: B1 V domain 1
As to B1, the Kd with BMP2 [3] stood at 0.0628 nM; with BMP4 [4], 0.031 nM.

B2: C8-E7 (antibody, V domains shown)
V domain 1: B1 V domain 1
V domain 2: EVQLVESGGGLVQAGGSLRLSCAASGSIRGFVAMAWYRQAPGKQREWVATVTNGGTLYGDSVKGRFTGSRDNAKNTVYLQMNSLKPEDTAVYYCALRQIGASGYDYWGQGTQVTVSS
On to B2, for which the Kd came out at 0.554 nM with BMP2 [3] and 0.099 nM with BMP4 [4].

B3: C8 (antibody, V domains shown)
VH: B1 V domain 1
In the case of B3, the Kd with BMP2 [3] was found to be 0.88 nM; with BMP4 [4], 0.392 nM.

B4: C4-C4 (antibody, V domains shown)
V domain 1: EVQLVESGGGLVQAGGSLRLSCAASGRTFSTYAMGWFRQAPGKEREFVAAISKGGGITYYSDSVRGRFTISKENAKNTVYLQMNSLKPEDTAVYYCAADPVSSVAKSPVAYPYWGQGTQVTVSS
V domain 2: B4 V domain 1
Turning to B4, the Kd in the assay with BMP2 [3] turned out to be 2.15 nM; in the assay with BMP4 [4], 0.0097 nM.

B5: D99A of C4: mutational variant of VHH C4, single substitution D99A (protein)
VHH: B4 V domain 1 with D99A
Regarding B5, the “inhibition of BMP2-mediated transcriptional activation” value with BMP2 [5] was “C4 nor its D99A mutant, had any effect”.

B6: E7 (antibody, V domains shown)
VH: B2 V domain 2
On to B6, for which the Kd in the assay with BMP2 [3] came to 1.07 nM; in the assay with BMP4 [4], 0.512 nM.

B7: BMPR1a (protein)
chain: QNLDSMLHGTGMKSDSDQKKSENGVTLAPEDTLPFLKCYCSGHCPDDAINNTCITNGHCFAIIEEDDQGETTLASGCMKYEGSDFQCKDSPKAQLRRTIECCRTNLCNQYLQPTLPPVVIGPFFDGSIR
B7 had a Kd in the assay with BMP4 [4] of 0.635 nM.

The values above are taken from patent US10280218B2, “Antibodies binding to BMP4, and uses thereof” (ACADEMISCH MEDISCH CENTRUM, priority 2014, dated 2019).
